The target in assay [1] is T1, CD4 on the surface of human T cells (human, UniProt P01730 26-458).
T1 construct: whole, on cells; also called selection marker CD4
The assay can be described thus: affinity column cell selection from apheresis, surface marker MFI of the collected cells by flow cytometry, 24 h with or without anti-CD3/anti-CD28 oligomeric reagent. A general note: A flow cytometer gives signals particle by particle.
Description: Following immobilization of STREP-TACTIN® onto the stationary phase, two mL of the suspension of Sephadex G50 with Strep-Tactin® was incubated with 10 μg of a selection agent specific to a T cell surface selection marker for 20 min at 4° C. in order to allow binding of the Fab fragment to the immobilized Strep-Tactin® reagent. The suspension was then filled in a plastic minicolumn with a 90 micrometer frit at the bottom. The column was equilibrated with PBS (phosphate buffered saline) containing 0.5% bovine serum albumin (PBSA buffer) to give a bed volume of 1 mL.
As a control, an apheresis sample was loaded onto the anti-CD3 affinity column but without incubation in the presence of the anti-CD3/anti-CD28 oligomeric stimulatory reagent.

Assay [2] concerns the target T2, Strep-Tactin M2 streptavidin mutein covalently immobilised on chromatography resin (Streptomyces avidinii, UniProt P22629 38-163, covalently coupled to the resin (CNBr-activated Sephadex G-50, agarose, or epoxy-activated polystyrene)).
T2 construct: also called immobilized Strep-Tactin; STREP-TACTIN M2 multimer reagent
The assay can be described thus: loading of Fab on Strep-Tactin Sephadex G50 resin, 20 min at 4 °C.
Description: A 50% suspension of Sephadex G50 contained approximately 70 μg of covalently coupled 7 Strep-Tactin®/mL of the bead suspension. Following immobilization of STREP-TACTIN® onto the stationary phase, two mL of the suspension of Sephadex G50 with Strep-Tactin® was incubated with 10 μg of a selection agent specific to a T cell surface selection marker for 20 min at 4° C. in order to allow binding of the Fab fragment to the immobilized Strep-Tactin® reagent. The suspension was then filled in a plastic minicolumn with a 90 micrometer frit at the bottom. The column was equilibrated with PBS (phosphate buffered saline) containing 0.5% bovine serum albumin (PBSA buffer) to give a bed volume of 1 mL.

B1: anti-CD4 Fab fragment m13B8.2 with Twin Strep-Tag (Fab, V domains shown)
VH: QVQLKQSGPGLVQPSQSLSITCTVSGFSLTTFGVHWVRQSPGKGLEWLGVIWASGITDYNVPFMSRLSITKDNSKSQVFFKLNSLQPDDTAIYYCAKNDPGTGFAYWGQGTLVTVSA
VL: DIQMTQSPASLSASVGETVTFTCRASEMIYSYLAWYQQKQGKSPQLLVHDAKTLAEGVPSRFSGGGSGTQFSLKINTLQPEDFGTYYCQAHYGNPPTFGGGTKLEIKR
In the case of B1, the binding result in assay [1] and in assay [2] was “binds” throughout.
